Data on 1 variant can be found in IntAct's records for PubMed 23622242.

B1: Double-stranded RNA-specific adenosine deaminase (Homo sapiens), P55265-1 (parent)
chain: MNPRQGYSLSGYYTHPFQGYEHRQLRYQQPGPGSSPSSFLLKQIEFLKGQLPEAPVIGKQTPSLPPSLPGLRPRFPVLLASSTRGRQVDIRGVPRGVHLRSQGLQRGFQHPSPRGRSLPQRGVDCLSSHFQELSIYQDQEQRILKFLEELGEGKATTAHDLSGKLGTPKKEINRVLYSLAKKGKLQKEAGTPPLWKIAVSTQAWNQHSGVVRPDGHSQGAPNSDPSLEPEDRNSTSVSEDLLEPFIAVSAQAWNQHSGVVRPDSHSQGSPNSDPGLEPEDSNSTSALEDPLEFLDMAEIKEKICDYLFNVSDSSALNLAKNIGLTKARDINAVLIDMERQGDVYRQGTTPPIWHLTDKKRERMQIKRNTNSVPETAPAAIPETKRNAEFLTCNIPTSNASNNMVTTEKVENGQEPVIKLENRQEARPEPARLKPPVHYNGPSKAGYVDFENGQWATDDIPDDLNSIRAAPGEFRAIMEMPSFYSHGLPRCSPYKKLTECQLKNPISGLLEYAQFASQTCEFNMIEQSGPPHEPRFKFQVVINGREFPPAEAGSKKVAKQDAAMKAMTILLEEAKAKDSGKSEESSHYSTEKESEKTAESQTPTPSATSFFSGKSPVTTLLECMHKLGNSCEFRLLSKEGPAHEPKFQYCVAVGAQTFPSVSAPSKKVAKQMAAEEAMKALHGEATNSMASDNQPEGMISESLDNLESMMPNKVRKIGELVRYLNTNPVGGLLEYARSHGFAAEFKLVDQSGPPHEPKFVYQAKVGGRWFPAVCAHSKKQGKQEAADAALRVLIGENEKAERMGFTEVTPVTGASLRRTMLLLSRSPEAQPKTLPLTGSTFHDQIAMLSHRCFNTLTNSFQPSLLGRKILAAIIMKKDSEDMGVVVSLGTGNRCVKGDSLSLKGETVNDCHAEIISRRGFIRFLYSELMKYNSQTAKDSIFEPAKGGEKLQIKKTVSFHLYISTAPCGDGALFDKSCSDRAMESTESRHYPVFENPKQGKLRTKVENGEGTIPVESSDIVPTWDGIRLGERLRTMSCSDKILRWNVLGLQGALLTHFLQPIYLKSVTLGYLFSQGHLTRAICCRVTRDGSAFEDGLRHPFIVNHPKVGRVSIYDSKRQSGKTKETSVNWCLADGYDLEILDGTRGTVDGPRNELSRVSKKNIFLLFKKLCSFRYRRDLLRLSYGEAKKAARDYETAKNYFKKGLKDMGYGNWISKPQEEKNFYLCPV
partner: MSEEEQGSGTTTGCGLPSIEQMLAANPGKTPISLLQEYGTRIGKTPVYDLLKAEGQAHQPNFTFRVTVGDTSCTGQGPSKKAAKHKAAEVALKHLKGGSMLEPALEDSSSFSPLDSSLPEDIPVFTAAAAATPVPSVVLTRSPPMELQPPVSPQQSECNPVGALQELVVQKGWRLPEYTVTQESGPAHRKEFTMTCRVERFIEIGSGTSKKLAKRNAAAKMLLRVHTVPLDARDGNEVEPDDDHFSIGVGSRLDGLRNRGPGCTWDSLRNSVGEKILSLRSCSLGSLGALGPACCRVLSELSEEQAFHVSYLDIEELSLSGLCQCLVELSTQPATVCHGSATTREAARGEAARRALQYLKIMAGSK

In this assay the parent is B1. Particulars: with trbp2_human TARBP2, Q15633.
With K554E;K555A;K558A;K665E;K666A;K669A;K777E;K778A;K781A, the “effect of a mutation on the interaction” value is “disrupting interaction strength”.
